Results on two molecules are retold here after patent US7470668B2, “Method of use of specific natriuretic peptide receptor c ligands, transgenic non-human mammals expressing specific natriuretic peptide receptor c antagonists and cells thereof” (Enobia Pharma Inc., priority 2005, dated 2008).

One experiment concerns the target T1, NPR-C (Homo sapiens, UniProt P17342).
T1 construct: expressed in transfected cells; host or cells: HEK293, transient, pCDNA1.1 (CMV promoter)
T1 sequence (P17342 27-541): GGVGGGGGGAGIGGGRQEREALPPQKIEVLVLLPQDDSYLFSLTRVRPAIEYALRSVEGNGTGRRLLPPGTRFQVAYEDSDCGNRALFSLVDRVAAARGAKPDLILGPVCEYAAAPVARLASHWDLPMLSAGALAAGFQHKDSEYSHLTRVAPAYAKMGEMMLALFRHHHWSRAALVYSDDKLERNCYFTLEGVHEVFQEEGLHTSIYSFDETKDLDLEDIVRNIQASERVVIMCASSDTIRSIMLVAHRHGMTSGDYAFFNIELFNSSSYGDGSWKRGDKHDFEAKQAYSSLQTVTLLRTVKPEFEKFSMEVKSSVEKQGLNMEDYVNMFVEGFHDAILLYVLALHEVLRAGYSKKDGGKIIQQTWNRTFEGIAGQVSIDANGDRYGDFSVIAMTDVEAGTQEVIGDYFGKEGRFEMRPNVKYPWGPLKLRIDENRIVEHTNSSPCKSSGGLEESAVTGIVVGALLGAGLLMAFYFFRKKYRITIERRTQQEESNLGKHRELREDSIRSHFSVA
Briefly: Competition of PLAP-Ostn binding on NPR-C over-expressing cells. To be noted: ~30 nM PLAP-Ostn, NPR-C transfected cells; read-out: concentration competing off 50% of the binding of PLAP-mOstn. An excerpt: (§1) The expression plasmid for rat GC-A containing the entire coding sequence cloned between the NheI-KpnI sites of CMV-driven pBK plasmid (Stratagene, La Jolla, Calif.) was kindly provided by Dr. A. De Léan (Département de Pharmacologie, Université de Montréal). The human NPR-C and GC-B coding sequences were amplified by RT-PCR from human embryonic kidney polyA RNA (Clontech, Palo Alto, Calif.) with the following primer pairs: NPR-C-5′-[…]-3′(forward) (SEQ ID NO: 74) and 5′-[…]-3′ (SEQ ID NO: 75) (reverse); GC-B-5′-[…]-3′ (SEQ ID NO: 76) (forward) and 5′-[…]-3′ (SEQ ID NO: 77) (reverse). The resulting PCR products were then cloned downstream of the CMV-promoter into the pCDNA1.1 plasmid (Invitrogen, Burlington, ON, Canada). All constructs were validated by DNA sequencing.

The next experiment concerns the target T2, rat GC-A (Rattus norvegicus, UniProt P18910).
T2 construct: expressed in transfected cells; host or cells: HEK293, transient, CMV-driven pBK plasmid (gift of Dr. A. De Léan)
T2 sequence (P18910 29-1057): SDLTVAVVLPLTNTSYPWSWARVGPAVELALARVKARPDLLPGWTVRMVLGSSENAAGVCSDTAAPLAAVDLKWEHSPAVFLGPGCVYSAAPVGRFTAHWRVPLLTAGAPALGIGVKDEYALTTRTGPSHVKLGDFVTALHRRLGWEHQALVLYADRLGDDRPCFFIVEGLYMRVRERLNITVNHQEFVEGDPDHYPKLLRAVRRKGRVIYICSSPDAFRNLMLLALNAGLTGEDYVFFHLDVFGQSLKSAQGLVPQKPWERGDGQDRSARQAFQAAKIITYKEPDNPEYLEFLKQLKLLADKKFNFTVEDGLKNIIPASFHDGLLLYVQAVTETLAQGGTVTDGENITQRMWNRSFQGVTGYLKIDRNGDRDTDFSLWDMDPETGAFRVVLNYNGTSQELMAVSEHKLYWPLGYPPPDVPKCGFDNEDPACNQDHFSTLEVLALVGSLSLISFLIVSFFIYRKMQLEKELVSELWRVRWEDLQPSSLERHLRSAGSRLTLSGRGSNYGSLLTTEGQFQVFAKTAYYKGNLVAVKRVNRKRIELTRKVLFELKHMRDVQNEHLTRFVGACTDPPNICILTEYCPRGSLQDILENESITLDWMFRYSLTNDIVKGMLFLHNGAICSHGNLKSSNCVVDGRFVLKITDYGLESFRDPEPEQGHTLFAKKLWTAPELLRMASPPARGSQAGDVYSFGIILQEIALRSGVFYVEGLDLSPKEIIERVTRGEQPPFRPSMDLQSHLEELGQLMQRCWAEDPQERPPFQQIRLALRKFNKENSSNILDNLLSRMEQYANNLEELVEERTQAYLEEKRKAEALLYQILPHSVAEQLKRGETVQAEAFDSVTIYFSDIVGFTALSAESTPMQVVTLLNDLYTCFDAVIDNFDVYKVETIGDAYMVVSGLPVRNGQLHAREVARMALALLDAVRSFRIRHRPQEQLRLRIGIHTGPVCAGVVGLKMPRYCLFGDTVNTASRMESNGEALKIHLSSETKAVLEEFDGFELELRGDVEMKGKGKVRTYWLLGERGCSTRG
Briefly: PLAP-Ostn binding to GC-A transfected HEK293 cells. The settings on record: cells overexpressing GC-A (not shown).
Description: as §1
(§2) To analyze the potential binding of Ostn to natriuretic receptors, a fusion protein (PLAP-Ostn) (FIG. 6) was generated as described above. This fusion protein comprised an N-terminal secreted placental alkaline phosphatase (PLAP) moiety linked to mature mouse Ostn (residues 29-130) (SEQ ID NO: 62). Conditioned media containing PLAP-mOstn was used to assess Ostn binding on transiently transfected cells.
(§3) Expression vectors for the coding sequence of GC-A, GC-B and NPR-C were constructed, transfected into human embryonic kidney (HEK) 293 cells and the cells incubated with either 37 nM PLAP or the PLAP-Ostn fusion. […]

A further experiment deals with T3, human GC-B (Homo sapiens, UniProt P20594).
T3 construct: expressed in transfected cells; host or cells: HEK293, transient, pCDNA1.1 (CMV promoter)
T3 sequence (P20594 23-1047): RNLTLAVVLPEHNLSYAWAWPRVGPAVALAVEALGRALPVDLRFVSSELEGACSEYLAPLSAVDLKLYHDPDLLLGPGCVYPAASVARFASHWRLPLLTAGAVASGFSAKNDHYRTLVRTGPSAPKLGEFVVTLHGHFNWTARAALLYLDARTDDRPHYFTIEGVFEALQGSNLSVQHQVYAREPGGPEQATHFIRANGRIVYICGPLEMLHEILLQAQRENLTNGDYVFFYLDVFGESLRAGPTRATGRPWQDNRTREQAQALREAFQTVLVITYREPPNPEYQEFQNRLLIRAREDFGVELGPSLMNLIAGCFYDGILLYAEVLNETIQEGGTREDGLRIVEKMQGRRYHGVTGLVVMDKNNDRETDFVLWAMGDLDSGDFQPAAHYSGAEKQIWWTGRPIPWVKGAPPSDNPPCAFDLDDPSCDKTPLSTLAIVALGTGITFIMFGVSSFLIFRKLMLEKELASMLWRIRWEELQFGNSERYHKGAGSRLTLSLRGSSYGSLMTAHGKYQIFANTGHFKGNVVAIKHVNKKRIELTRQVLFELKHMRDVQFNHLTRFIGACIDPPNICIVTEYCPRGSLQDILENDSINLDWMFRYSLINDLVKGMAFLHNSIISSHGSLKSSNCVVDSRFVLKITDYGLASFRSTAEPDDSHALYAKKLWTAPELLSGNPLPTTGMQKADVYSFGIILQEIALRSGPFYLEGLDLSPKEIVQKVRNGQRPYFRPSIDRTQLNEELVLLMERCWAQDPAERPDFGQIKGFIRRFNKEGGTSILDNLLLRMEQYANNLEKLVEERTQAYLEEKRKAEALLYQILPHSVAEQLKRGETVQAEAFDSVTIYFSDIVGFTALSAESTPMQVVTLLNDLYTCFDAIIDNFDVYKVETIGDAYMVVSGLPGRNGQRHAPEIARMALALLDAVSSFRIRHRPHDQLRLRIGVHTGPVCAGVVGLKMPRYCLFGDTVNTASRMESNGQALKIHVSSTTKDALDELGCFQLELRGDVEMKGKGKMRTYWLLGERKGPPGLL
Briefly: PLAP-Ostn binding to GC-B transfected HEK293 cells. The settings on record: cells overexpressing GC-B.
Description: as §1, §2, §3

No end group written: not given here.

With “YDHSKKRFGIPMDRIGRNRLSNSR-NH2 [Ostn[107-129]]”, the IC50 at NPR-C was in the range of 1 to 10 nM.

B1: PLAP-mOstn: fusion protein: N-terminal secreted placental alkaline phosphatase moiety linked to mature mouse Ostn residues 29-130 (SEQ ID NO: 70) (protein)
chain: DAAQPARRARRTYEAYVRSSGIIPVEEENPDFWNREAAEALGAAKKLQPAQTAAKNLIIFLGDGMGVSTVTAARILKGQKKDKLGPEIPLAMDRFPYVALSKTYNVDKHVPDSGATATAYLCGVKGNFQTIGLSAAARFNQCNTTRGNEVISVMNRAKKAGKSVGVVTTTRVQHASPAGTYAHTVNRNWYSDADVPASARQEGCQDIATQLISNMDIDVILGGGRKYMFPMGTPDPEYPDDYSQGGTRLDGKNLVQEWLAKRQGARYVWNRTELMQASLDPSVTHLMGLFEPGDMKYEIHRDSTLDPSLMEMTEAALRLLSRNPRGFFLFVEGGRIDHGHHESRAYRALTETIMFDDAIERAGQLTSEEDTLSLVTADHSHVFSFGGYPLRGSSIFGLAPGKARDRKAYTVLLYGNGPGYVLKDGARPDVTESESGSPEYRQQSAVPLDEETHAGEDVAVFARGPQAHLVHGVQEQTFIAHVMAFAACLEPYTACDLAPPAGTTDAAHPGYLDLASQEFGTASLQSPPTAREEKSATELSAKLLRLDDLVSLENDVFETKKKRSFSGFGSPLDRLSAGSVEHRGKQRKAVDHSKKRFGIPMDRIGRNRLSSSRG
On to B1, for which the specific binding entry in the experiment with rat GC-A and with human GC-B was “No specific binding” in each case.
